Key:
[1] = molecular target: Mucorales CotH3 (Rhizopus delemar, UniProt I1CFE1)
[2] = test system: R. delemar 99-880; assay: Neutropenic mouse model of mucormycosis, R. delemar 99-880 infection; assay type: in vivo, Rhizopus delemar; conditions: single dose of 30 μg 24 h after infection, lungs harvested day 4
Procedure: Mouse models: Neutropenic mice model used male ICR mice (20 to 23 g) obtained from Envigo (NJ). Mice were injected with cyclophosphamide (200 mg/kg, given intraperitoneally) and cortisone acetate (500 mg/kg, given subcutaneously) on days −2, +3, and +8 relative to infection^(1).
Antibody treatment with a single dose of 30 μg humanized antibody, or isotype human IgG started 24 or 48 hours after infection and was administered by intraperitoneal injection. Time to moribundity (equated with survival) served as the primary endpoint. As a secondary endpoint and in some experiments, fungal burden in the lungs and brains (primary and secondary target organs) was determined 96 hours after infection by quantitative PCR assay, as we previously described^(3). Values were expressed as log10 spore equivalent per gram of tissue. Histopathological examination was carried out on sections of the harvested organs after fixing in 10% zinc formalin. The fixed organs were embedded in paraffin, and […] sections were stained with hematoxylin and eosin.

[3] = intravenous, single dose 10 μg, 30 μg or 100 μg, 1-168 hours
Procedure: Pharmacokinetics study: Neutropenic mice were infected intratracheally with 25 μl of PBS containing 2.5×10^5 spores of Rhizopus delemear. […] After infection, mice were treated daily with 5 mg in 0.2 ml of irrigation water with ceftazidime subcutaneously to prevent bacterial superinfection. […] Mouse serum samples were collected at the time points: 1 hour, 2 hours, 4 hours, 8 hours, 24 hours, 72 hours, 120 hours, and 168 hours after the antibody injection. The antibody concentration in the mouse serum samples was detected by ELISA, with Flag-CotH3 as the coating protein, and anti-human-IgG-HRP as the secondary antibody.

[4] = molecular target: CotH3 antigen (Rhizopus delemar, UniProt I1CFE1); conditions: Protein G sensor, CotH3 6.25-400 nM, 25° C.
Sequence of CotH3 antigen (I1CFE1 18-601): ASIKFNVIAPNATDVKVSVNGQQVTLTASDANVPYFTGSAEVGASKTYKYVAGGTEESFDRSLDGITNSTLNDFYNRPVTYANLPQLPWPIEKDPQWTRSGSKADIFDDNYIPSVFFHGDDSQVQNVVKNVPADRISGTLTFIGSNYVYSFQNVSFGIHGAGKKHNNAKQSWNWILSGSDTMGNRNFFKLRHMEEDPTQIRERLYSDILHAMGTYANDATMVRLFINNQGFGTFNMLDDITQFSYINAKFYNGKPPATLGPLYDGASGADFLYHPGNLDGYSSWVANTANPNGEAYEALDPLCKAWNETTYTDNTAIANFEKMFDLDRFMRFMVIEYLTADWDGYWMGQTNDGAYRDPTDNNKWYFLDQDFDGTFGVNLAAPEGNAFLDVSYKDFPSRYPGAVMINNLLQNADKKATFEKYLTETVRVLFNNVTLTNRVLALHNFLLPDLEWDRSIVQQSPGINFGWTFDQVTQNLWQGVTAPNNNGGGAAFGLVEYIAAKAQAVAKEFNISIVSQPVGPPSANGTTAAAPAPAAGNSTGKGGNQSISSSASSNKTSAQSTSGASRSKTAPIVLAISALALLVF
Procedure: The purified preparations were then used to assess the affinity of each clone for the CotH3 antigen by biolayer interferometry using Gator system (ProbeLife). Under the assumption that the CotH3 antigen provided by Vitalex behaves as a normal soluble monomeric protein, a Protein G coated sensor probe (ProbeLife, catalog #160006) was loaded with the bivalent antibody test clone at a concentration of 5 μg/ml in ProbeLife's kinetic buffer (PBS pH 7.4, 0.02% BSA, 0.002% Tween-20, 0.005% NaN3). A serial dilution of CotH3 antigen of 400, 200, 100, 50, 25, 12.5, 6.25 nM and buffer only (0 nM) was added to the sensors. All reactions were performed at 25° C. The values are chosen when three or more concentrations yield the same kinetic values. The original murine mAb was provided by Vitalex as the reference.

[5] = molecular target: T1, Mucorales CotH2 (Rhizopus delemar, UniProt I1C4E4)
T1 sequence (I1C4E4 whole entry, looked up): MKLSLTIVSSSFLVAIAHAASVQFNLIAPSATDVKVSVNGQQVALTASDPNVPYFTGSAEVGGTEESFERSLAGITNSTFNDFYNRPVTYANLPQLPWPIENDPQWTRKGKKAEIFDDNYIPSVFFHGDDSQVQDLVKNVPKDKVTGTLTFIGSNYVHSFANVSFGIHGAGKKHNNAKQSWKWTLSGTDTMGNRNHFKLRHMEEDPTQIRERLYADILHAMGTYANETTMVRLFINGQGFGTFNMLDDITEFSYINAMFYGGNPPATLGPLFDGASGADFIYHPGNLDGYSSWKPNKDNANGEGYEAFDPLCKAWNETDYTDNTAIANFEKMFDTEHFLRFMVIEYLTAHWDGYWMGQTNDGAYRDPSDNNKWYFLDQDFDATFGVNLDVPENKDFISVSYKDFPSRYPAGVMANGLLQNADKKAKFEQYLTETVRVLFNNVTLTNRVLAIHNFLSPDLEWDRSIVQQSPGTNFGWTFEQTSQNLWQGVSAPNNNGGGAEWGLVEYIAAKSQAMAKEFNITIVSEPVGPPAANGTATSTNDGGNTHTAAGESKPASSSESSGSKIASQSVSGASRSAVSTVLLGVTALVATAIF

Sequence of Mucorales CotH3 (I1CFE1 18-601): as the sequence (I1CFE1 18-601) above

B1: mAb: mouse monoclonal IgG1 kappa anti-CotH3 antibody, clone C2, raised against peptide SEQ ID NO:34 (antibody, V domains shown)
VH: DLQLQESGPSLVKPSQTLSLTCSVTGDSITSGYWNWIRKFPGNKLEHMGYIKYSGRTFYNPSLKSRVSITRDTSKNQYYLQLNSVTSEDTATYYCASRGYWGQGTTLTVSS
VL: DVVMTQTPLSLSVTIGQPASISCKSSQSLLYSNGKTYLNWLQQRPGQAPKLLMFQVSKPGIPDRFSGSGSETDFTLKISRVEAEDLGVYYCLQGTYFPHTFGAGTKVEIK
[1]
  specific binding to CotH3: bound specifically
[2]
  lung histology: no fungal elements and normal lung architecture
[3]
  pharmacokinetics (serum antibody concentration): Dose dependent pharmacokinetics
[4]
  Koff (S^−1): 1.41E−3 S^−1
  Kon: 23900 M⁻¹ s⁻¹
  Rmax: 0.69
[5]
  specific binding to CotH2: bound specifically

— US20240209070A1, “COTH3 BINDING AGENTS AND USES THEREOF” (priority 2021, published 2024)
